Experimental data: article PMC9482650, “Quantitative fragmentomics allow affinity mapping of interactomes” (Nature Communications, 2022)

Tests used:
Assay in all cases: holdup assay
Parameters in all cases: key: below the threshold = too weak to quantify, mostly under pKd 3.1 to 4
APBA2_1, Q99767 = target: T1, APBA2_1, Q99767
T1 sequence (Q99767 563-664, limits assumed, looked up): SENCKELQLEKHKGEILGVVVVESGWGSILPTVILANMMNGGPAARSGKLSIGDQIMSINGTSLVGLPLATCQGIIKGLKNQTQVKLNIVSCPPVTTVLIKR

APBA3_1, O96018 = target: T2, APBA3_1, O96018
T2 sequence (O96018 389-490, limits assumed, looked up): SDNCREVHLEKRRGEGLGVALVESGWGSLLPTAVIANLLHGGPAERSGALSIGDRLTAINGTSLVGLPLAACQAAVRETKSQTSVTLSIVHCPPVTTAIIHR

ARHGEF12, Q9NZN5-2 = target: ARHGEF12, Q9NZN5-2
CASK, O14936 = target: CASK, O14936
DFNB31_2, Q9P202 = target: T3, DFNB31_2, Q9P202
T3 sequence (Q9P202 274-371, limits assumed, looked up): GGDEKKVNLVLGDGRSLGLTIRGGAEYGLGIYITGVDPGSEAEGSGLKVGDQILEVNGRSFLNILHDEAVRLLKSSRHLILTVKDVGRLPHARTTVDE

DLG2_2, Q15700 = target: DLG2_2, Q15700
DVL3, Q92997 = target: T4, DVL3, Q92997
T4 sequence (Q92997 244-331, limits assumed, looked up): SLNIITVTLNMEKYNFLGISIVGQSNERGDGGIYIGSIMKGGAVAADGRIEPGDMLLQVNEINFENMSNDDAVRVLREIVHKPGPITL

GORASP1, Q9BQQ3 = target: GORASP1, Q9BQQ3
GRIP2_3, Q9C0E4 = target: GRIP2_3, Q9C0E4
GRIP2_7, Q9C0E4 = target: GRIP2_7, Q9C0E4
HTRA3, P83110 = target: T5, HTRA3, P83110
T5 sequence (P83110 354-453, limits assumed, looked up): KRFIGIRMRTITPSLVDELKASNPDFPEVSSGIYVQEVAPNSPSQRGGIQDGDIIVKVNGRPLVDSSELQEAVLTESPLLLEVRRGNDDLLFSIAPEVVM

LIMK2, P53671 = target: LIMK2, P53671
MAGI1_2, Q96QZ7 = target: MAGI1_2, Q96QZ7
NHERF3_3, Q5T2W1 = target: T6, NHERF3_3, Q5T2W1
T6 sequence (Q5T2W1 238-333, limits assumed, looked up): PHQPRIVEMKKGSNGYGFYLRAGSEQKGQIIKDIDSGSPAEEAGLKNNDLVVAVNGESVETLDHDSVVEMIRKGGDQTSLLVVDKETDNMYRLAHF

NHERF4_2, Q86UT5 = target: NHERF4_2, Q86UT5
PARD3B_1, Q8TEW8 = target: T7, PARD3B_1, Q8TEW8
T7 sequence (Q8TEW8 196-299, limits assumed, looked up): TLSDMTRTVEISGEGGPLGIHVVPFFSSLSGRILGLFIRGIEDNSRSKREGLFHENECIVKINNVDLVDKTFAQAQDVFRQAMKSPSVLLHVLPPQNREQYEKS

PARD3_3, Q8TEW0 = target: PARD3_3, Q8TEW0
PDZD7_3, Q9H5P4 = target: T8, PDZD7_3, Q9H5P4
T8 sequence (Q9H5P4 857-944, limits assumed, looked up): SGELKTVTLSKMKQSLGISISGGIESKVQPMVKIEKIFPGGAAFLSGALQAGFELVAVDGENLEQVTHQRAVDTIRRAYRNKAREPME

SCRIB_1, Q14160 = target: SCRIB_1, Q14160
SCRIB_3, Q14160 = target: SCRIB_3, Q14160
SIPA1L2, Q9P2F8 = target: T9, SIPA1L2, Q9P2F8
T9 sequence (Q9P2F8 945-1036, limits assumed, looked up): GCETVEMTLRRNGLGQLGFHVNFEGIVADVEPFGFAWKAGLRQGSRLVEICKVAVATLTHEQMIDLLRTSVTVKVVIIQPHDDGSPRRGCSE

SNTA1, Q13424 = target: T10, SNTA1, Q13424
T10 sequence (Q13424 82-180, limits assumed, looked up): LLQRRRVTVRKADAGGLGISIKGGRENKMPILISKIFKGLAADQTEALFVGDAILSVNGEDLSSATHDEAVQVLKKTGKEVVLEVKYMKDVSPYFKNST

SNTG1, Q9NSN8 = target: T11, SNTG1, Q9NSN8
T11 sequence (Q9NSN8 52-150, limits assumed, looked up): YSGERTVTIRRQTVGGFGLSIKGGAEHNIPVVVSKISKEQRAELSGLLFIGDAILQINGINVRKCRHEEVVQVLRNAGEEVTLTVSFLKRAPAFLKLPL

TJP1_2, Q07157 = target: TJP1_2, Q07157
TJP2_1, Q9UDY2 = target: TJP2_1, Q9UDY2
TJP3_3, O95049 = target: T12, TJP3_3, O95049
T12 sequence (O95049 375-456, limits assumed, looked up): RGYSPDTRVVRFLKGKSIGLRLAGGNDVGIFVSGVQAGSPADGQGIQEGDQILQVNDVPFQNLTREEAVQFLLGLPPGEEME

[1] = plain residues with an end cap or a label only (N-terminal biotin on a linker: ado-ado)
[2] = modified: phospho on T at position -2 from the C-terminal residue

Chain of TJP1_2, Q07157 (Q07157 181-274): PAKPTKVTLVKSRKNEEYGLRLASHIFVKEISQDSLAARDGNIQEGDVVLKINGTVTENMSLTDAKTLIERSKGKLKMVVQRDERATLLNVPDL
Chain of LIMK2, P53671 (P53671 143-248): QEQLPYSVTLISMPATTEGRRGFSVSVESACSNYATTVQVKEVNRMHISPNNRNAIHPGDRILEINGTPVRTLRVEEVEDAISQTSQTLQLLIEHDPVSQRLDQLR
Chain of CASK, O14936 (O14936 487-570): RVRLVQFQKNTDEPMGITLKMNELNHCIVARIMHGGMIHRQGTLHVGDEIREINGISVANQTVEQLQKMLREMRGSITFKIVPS
Chain of DLG2_2, Q15700 (Q15700 189-283): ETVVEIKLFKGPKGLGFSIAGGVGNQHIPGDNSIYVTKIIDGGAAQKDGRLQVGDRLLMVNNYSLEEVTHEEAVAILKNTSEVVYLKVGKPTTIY
Chain of GRIP2_3, Q9C0E4 (Q9C0E4 238-339): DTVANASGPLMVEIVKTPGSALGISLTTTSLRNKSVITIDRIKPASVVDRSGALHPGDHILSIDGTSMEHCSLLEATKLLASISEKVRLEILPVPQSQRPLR
Chain of NHERF4_2, Q86UT5 (Q86UT5 220-308): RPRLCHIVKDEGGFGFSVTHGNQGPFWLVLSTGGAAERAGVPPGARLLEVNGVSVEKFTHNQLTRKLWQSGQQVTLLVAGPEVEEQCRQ
Chain of GRIP2_7, Q9C0E4 (Q9C0E4 934-1023): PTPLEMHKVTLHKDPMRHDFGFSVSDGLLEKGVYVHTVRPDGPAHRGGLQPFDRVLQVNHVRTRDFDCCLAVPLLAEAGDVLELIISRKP
Chain of GORASP1, Q9BQQ3 (Q9BQQ3 1-208): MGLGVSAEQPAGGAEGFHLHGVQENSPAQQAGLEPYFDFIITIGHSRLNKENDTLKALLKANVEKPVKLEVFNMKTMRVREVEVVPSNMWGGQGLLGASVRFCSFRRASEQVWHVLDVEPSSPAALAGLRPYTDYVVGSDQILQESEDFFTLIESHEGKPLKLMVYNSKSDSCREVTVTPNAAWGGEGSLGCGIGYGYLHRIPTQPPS
Chain of TJP2_1, Q9UDY2 (Q9UDY2 24-128): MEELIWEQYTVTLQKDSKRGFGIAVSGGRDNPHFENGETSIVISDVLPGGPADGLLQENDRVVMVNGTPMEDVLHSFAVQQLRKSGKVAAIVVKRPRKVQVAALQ
Chain of ARHGEF12, Q9NZN5-2 (Q9NZN5 other isoform, or with tags, fused parts or gaps): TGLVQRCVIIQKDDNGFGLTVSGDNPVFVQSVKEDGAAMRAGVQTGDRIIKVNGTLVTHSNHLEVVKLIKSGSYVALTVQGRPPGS
Chain of MAGI1_2, Q96QZ7 (Q96QZ7 456-580): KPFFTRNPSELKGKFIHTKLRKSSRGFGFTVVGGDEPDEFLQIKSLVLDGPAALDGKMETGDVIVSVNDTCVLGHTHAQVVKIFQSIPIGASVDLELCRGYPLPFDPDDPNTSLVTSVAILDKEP
Chain of SCRIB_3, Q14160 (Q14160 999-1103): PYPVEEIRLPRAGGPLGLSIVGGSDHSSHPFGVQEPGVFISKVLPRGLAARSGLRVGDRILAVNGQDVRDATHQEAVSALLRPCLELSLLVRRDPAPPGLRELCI
Chain of PARD3_3, Q8TEW0 (Q8TEW0 582-685): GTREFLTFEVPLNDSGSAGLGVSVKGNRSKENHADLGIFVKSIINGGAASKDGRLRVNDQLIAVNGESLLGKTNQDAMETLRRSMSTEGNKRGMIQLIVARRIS
Chain of SCRIB_1, Q14160 (Q14160 718-814): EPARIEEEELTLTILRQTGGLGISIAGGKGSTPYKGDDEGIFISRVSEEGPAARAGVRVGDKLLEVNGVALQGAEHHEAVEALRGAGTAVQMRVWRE

B1: CCDC134, Q9H6E4 (peptide)
chain: PRISRSQSEL
pKd (APBA2_1, Q99767; [1]): below the threshold | pKd (APBA3_1, O96018; [1]): below the threshold | pKd (ARHGEF12, Q9NZN5-2; [1]): 4.27 | pKd (CASK, O14936; [1]): below the threshold | pKd (DFNB31_2, Q9P202; [1]): below the threshold | pKd (DLG2_2, Q15700; [1]): below the threshold | pKd (DVL3, Q92997; [1]): below the threshold | pKd (GORASP1, Q9BQQ3; [1]): below the threshold | pKd (GRIP2_3, Q9C0E4; [1]): below the threshold | pKd (GRIP2_7, Q9C0E4; [1]): below the threshold | pKd (HTRA3, P83110; [1]): below the threshold | pKd (LIMK2, P53671; [1]): below the threshold | pKd (MAGI1_2, Q96QZ7; [1]): 4.13 | pKd (NHERF3_3, Q5T2W1; [1]): below the threshold | pKd (NHERF4_2, Q86UT5; [1]): below the threshold | pKd (PARD3B_1, Q8TEW8; [1]): below the threshold | pKd (PARD3_3, Q8TEW0; [1]): below the threshold | pKd (PDZD7_3, Q9H5P4; [1]): below the threshold | pKd (SCRIB_1, Q14160; [1]): below the threshold | pKd (SCRIB_3, Q14160; [1]): 4.06 | pKd (SIPA1L2, Q9P2F8; [1]): below the threshold | pKd (SNTA1, Q13424; [1]): below the threshold | pKd (SNTG1, Q9NSN8; [1]): below the threshold | pKd (TJP1_2, Q07157; [1]): below the threshold | pKd (TJP2_1, Q9UDY2; [1]): below the threshold | pKd (TJP3_3, O95049; [1]): below the threshold

B2: ACTN2, P35609 (peptide)
chain: SSALYGESDL
pKd (APBA2_1, Q99767; [1]): below the threshold | pKd (APBA3_1, O96018; [1]): below the threshold | pKd (ARHGEF12, Q9NZN5-2; [1]): 4.06 | pKd (CASK, O14936; [1]): below the threshold | pKd (DFNB31_2, Q9P202; [1]): below the threshold | pKd (DLG2_2, Q15700; [1]): 3.52 | pKd (DVL3, Q92997; [1]): below the threshold | pKd (GORASP1, Q9BQQ3; [1]): below the threshold | pKd (GRIP2_3, Q9C0E4; [1]): below the threshold | pKd (GRIP2_7, Q9C0E4; [1]): below the threshold | pKd (HTRA3, P83110; [1]): below the threshold | pKd (LIMK2, P53671; [1]): below the threshold | pKd (MAGI1_2, Q96QZ7; [1]): below the threshold | pKd (NHERF3_3, Q5T2W1; [1]): below the threshold | pKd (NHERF4_2, Q86UT5; [1]): below the threshold | pKd (PARD3B_1, Q8TEW8; [1]): below the threshold | pKd (PARD3_3, Q8TEW0; [1]): below the threshold | pKd (PDZD7_3, Q9H5P4; [1]): below the threshold | pKd (SCRIB_1, Q14160; [1]): 4.23 | pKd (SCRIB_3, Q14160; [1]): 5.1 | pKd (SIPA1L2, Q9P2F8; [1]): below the threshold | pKd (SNTA1, Q13424; [1]): 3.59 | pKd (SNTG1, Q9NSN8; [1]): 4.12 | pKd (TJP1_2, Q07157; [1]): below the threshold | pKd (TJP2_1, Q9UDY2; [1]): below the threshold | pKd (TJP3_3, O95049; [1]): below the threshold

B3: HPV18-E6_-2P, P06463 (peptide)
chain: RLQRRRETQV
pKd (APBA2_1, Q99767; [2]): below the threshold | pKd (APBA3_1, O96018; [2]): below the threshold | pKd (ARHGEF12, Q9NZN5-2; [2]): below the threshold | pKd (CASK, O14936; [2]): below the threshold | pKd (DFNB31_2, Q9P202; [2]): below the threshold | pKd (DLG2_2, Q15700; [2]): 3.48 | pKd (DVL3, Q92997; [2]): below the threshold | pKd (GORASP1, Q9BQQ3; [2]): below the threshold | pKd (GRIP2_3, Q9C0E4; [2]): below the threshold | pKd (GRIP2_7, Q9C0E4; [2]): below the threshold | pKd (HTRA3, P83110; [2]): below the threshold | pKd (LIMK2, P53671; [2]): below the threshold | pKd (MAGI1_2, Q96QZ7; [2]): below the threshold | pKd (NHERF3_3, Q5T2W1; [2]): below the threshold | pKd (NHERF4_2, Q86UT5; [2]): below the threshold | pKd (PARD3B_1, Q8TEW8; [2]): below the threshold | pKd (PARD3_3, Q8TEW0; [2]): below the threshold | pKd (PDZD7_3, Q9H5P4; [2]): below the threshold | pKd (SCRIB_1, Q14160; [2]): below the threshold | pKd (SCRIB_3, Q14160; [2]): below the threshold | pKd (SIPA1L2, Q9P2F8; [2]): below the threshold | pKd (SNTA1, Q13424; [2]): below the threshold | pKd (SNTG1, Q9NSN8; [2]): below the threshold | pKd (TJP1_2, Q07157; [2]): below the threshold | pKd (TJP2_1, Q9UDY2; [2]): below the threshold | pKd (TJP3_3, O95049; [2]): below the threshold

B4: LPXN, O60711 (peptide)
chain: QPCFNKLFPL
pKd (APBA2_1, Q99767; [1]): below the threshold | pKd (APBA3_1, O96018; [1]): below the threshold | pKd (ARHGEF12, Q9NZN5-2; [1]): 3.56 | pKd (CASK, O14936; [1]): below the threshold | pKd (DFNB31_2, Q9P202; [1]): below the threshold | pKd (DLG2_2, Q15700; [1]): below the threshold | pKd (DVL3, Q92997; [1]): below the threshold | pKd (GORASP1, Q9BQQ3; [1]): 3.68 | pKd (GRIP2_3, Q9C0E4; [1]): below the threshold | pKd (GRIP2_7, Q9C0E4; [1]): 3.69 | pKd (HTRA3, P83110; [1]): below the threshold | pKd (LIMK2, P53671; [1]): below the threshold | pKd (MAGI1_2, Q96QZ7; [1]): below the threshold | pKd (NHERF3_3, Q5T2W1; [1]): below the threshold | pKd (NHERF4_2, Q86UT5; [1]): below the threshold | pKd (PARD3B_1, Q8TEW8; [1]): 3.75 | pKd (PARD3_3, Q8TEW0; [1]): below the threshold | pKd (PDZD7_3, Q9H5P4; [1]): below the threshold | pKd (SCRIB_1, Q14160; [1]): below the threshold | pKd (SCRIB_3, Q14160; [1]): below the threshold | pKd (SIPA1L2, Q9P2F8; [1]): below the threshold | pKd (SNTA1, Q13424; [1]): below the threshold | pKd (SNTG1, Q9NSN8; [1]): below the threshold | pKd (TJP1_2, Q07157; [1]): below the threshold | pKd (TJP2_1, Q9UDY2; [1]): below the threshold | pKd (TJP3_3, O95049; [1]): below the threshold
